Measurements: patent publication WO2011147762A2

How the values were obtained:
[1] = biological target: ED-B fibronectin antigen protein (recombinant), bound to CNBr activated sepharose 4B (UniProt P02751); experiment: ED-B sepharose column, % of total radioactivity bound; Study A; trolox 5 mg/mL; day 5
[2] = biological target: ED-B fibronectin antigen protein (recombinant), bound to CNBr activated sepharose 4B (UniProt P02751); experiment: ED-B sepharose column, % of total radioactivity bound; Study A; maltose 50 mg/mL; day 3
[3] = biological target: ED-B fibronectin antigen protein (recombinant), bound to CNBr activated sepharose 4B (UniProt P02751); experiment: ED-B sepharose column, % of total radioactivity bound; Study A; maltose 50 mg/mL; day 7
[4] = biological target: ED-B fibronectin antigen protein (recombinant), bound to CNBr activated sepharose 4B (UniProt P02751); experiment: ED-B sepharose column, % of total radioactivity bound; Study A; inositol 5 mg/mL; day 0
[5] = biological target: ED-B fibronectin antigen protein (recombinant), bound to CNBr activated sepharose 4B (UniProt P02751); experiment: ED-B sepharose column, % of total radioactivity bound; Study A; inositol 5 mg/mL; day 3
[6] = biological target: ED-B fibronectin antigen protein (recombinant), bound to CNBr activated sepharose 4B (UniProt P02751); experiment: ED-B sepharose column, % of total radioactivity bound; Study A; inositol 5 mg/mL; day 5
[7] = biological target: ED-B fibronectin antigen protein (recombinant), bound to CNBr activated sepharose 4B (UniProt P02751); experiment: ED-B sepharose column, % of total radioactivity bound; Study A; inositol 10 mg/mL; day 3
[8] = biological target: ED-B fibronectin antigen protein (recombinant), bound to CNBr activated sepharose 4B (UniProt P02751); experiment: ED-B sepharose column, % of total radioactivity bound; Study A; inositol 10 mg/mL; day 7
[9] = biological target: ED-B fibronectin antigen protein (recombinant), bound to CNBr activated sepharose 4B (UniProt P02751); experiment: ED-B sepharose column, % of total radioactivity bound; Study A; inositol 25 mg/mL; day 1
[10] = biological target: ED-B fibronectin antigen protein (recombinant), bound to CNBr activated sepharose 4B (UniProt P02751); experiment: ED-B sepharose column, % of total radioactivity bound; Study A; inositol 25 mg/mL; day 5
[11] = biological target: ED-B fibronectin antigen protein (recombinant), bound to CNBr activated sepharose 4B (UniProt P02751); experiment: ED-B sepharose column, % of total radioactivity bound; Study A; inositol 50 mg/mL; day 3
[12] = biological target: ED-B fibronectin antigen protein (recombinant), bound to CNBr activated sepharose 4B (UniProt P02751); experiment: ED-B sepharose column, % of total radioactivity bound; Study A; inositol 50 mg/mL; day 7
[13] = biological target: ED-B fibronectin antigen protein (recombinant), bound to CNBr activated sepharose 4B (UniProt P02751); experiment: ED-B sepharose column, % of total radioactivity bound; Study B3; inositol 10 mg/mL; day 1
[14] = biological target: ED-B fibronectin antigen protein (recombinant), bound to CNBr activated sepharose 4B (UniProt P02751); experiment: ED-B sepharose column, % of total radioactivity bound; Study B3; inositol 10 mg/mL; day 2
[15] = biological target: ED-B fibronectin antigen protein (recombinant), bound to CNBr activated sepharose 4B (UniProt P02751); experiment: ED-B sepharose column, % of total radioactivity bound; Study A; methionine 10 mg/mL; day 7
[16] = biological target: ED-B fibronectin antigen protein (recombinant), bound to CNBr activated sepharose 4B (UniProt P02751); experiment: ED-B sepharose column, % of total radioactivity bound; Study A; methionine 25 mg/mL; day 5
[17] = biological target: ED-B fibronectin antigen protein (recombinant), bound to CNBr activated sepharose 4B (UniProt P02751); experiment: ED-B sepharose column, % of total radioactivity bound; Study B3; thioglycerol 10 mg/mL; day 0
[18] = biological target: ED-B fibronectin antigen protein (recombinant), bound to CNBr activated sepharose 4B (UniProt P02751); experiment: ED-B sepharose column, % of total radioactivity bound; Study B3; ascorbic acid 25 mg/mL; day 1
[19] = biological target: ED-B fibronectin antigen protein (recombinant), bound to CNBr activated sepharose 4B (UniProt P02751); experiment: ED-B sepharose column, % of total radioactivity bound; Study B3; ascorbic acid 25 mg/mL; day 5
[20] = biological target: ED-B fibronectin antigen protein (recombinant), bound to CNBr activated sepharose 4B (UniProt P02751); experiment: ED-B sepharose column, % of total radioactivity bound; Study A; sodium thiosulfate 10 mg/mL; day 3
[21] = biological target: ED-B fibronectin antigen protein (recombinant), bound to CNBr activated sepharose 4B (UniProt P02751); experiment: ED-B sepharose column, % of total radioactivity bound; Study A; sodium thiosulfate 25 mg/mL; day 5
[22] = biological target: ED-B fibronectin antigen protein (recombinant), bound to CNBr activated sepharose 4B (UniProt P02751); experiment: ED-B sepharose column, % of total radioactivity bound; Study A; sodium thiosulfate 25 mg/mL; day 7
[23] = biological target: ED-B fibronectin antigen protein (recombinant), bound to CNBr activated sepharose 4B (UniProt P02751); experiment: ED-B sepharose column, % of total radioactivity bound; Study A; sodium thiosulfate 50 mg/mL; day 0
[24] = biological target: ED-B fibronectin antigen protein (recombinant), bound to CNBr activated sepharose 4B (UniProt P02751); experiment: ED-B sepharose column, % of total radioactivity bound; Study A; no-excipient control (saline); day 5
[25] = biological target: ED-B fibronectin antigen protein (recombinant), bound to CNBr activated sepharose 4B (UniProt P02751); experiment: ED-B sepharose column, % of total radioactivity bound; Study A; no-excipient control (saline); day 7
[26] = biological target: ED-B fibronectin antigen protein (recombinant), bound to CNBr activated sepharose 4B (UniProt P02751); experiment: ED-B sepharose column, % of total radioactivity bound; Study B3; human serum albumin 10 mg/mL; day 0
[27] = biological target: ED-B fibronectin antigen protein (recombinant), bound to CNBr activated sepharose 4B (UniProt P02751); experiment: ED-B sepharose column, % of total radioactivity bound; Study B3; human serum albumin 10 mg/mL; day 3
[28] = biological target: ED-B fibronectin antigen protein (recombinant), bound to CNBr activated sepharose 4B (UniProt P02751); experiment: ED-B sepharose column, % of total radioactivity bound; Study B3; human serum albumin 10 mg/mL; day 7

Sequence of UniProt P02751 (P02751 1266-1356 limits assumed): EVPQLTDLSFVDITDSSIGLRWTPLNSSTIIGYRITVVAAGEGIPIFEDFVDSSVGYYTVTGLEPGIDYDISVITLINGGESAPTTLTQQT
Sequence of 131I L19-SIP (radioiodinated L19 SIP homodimer) (chain): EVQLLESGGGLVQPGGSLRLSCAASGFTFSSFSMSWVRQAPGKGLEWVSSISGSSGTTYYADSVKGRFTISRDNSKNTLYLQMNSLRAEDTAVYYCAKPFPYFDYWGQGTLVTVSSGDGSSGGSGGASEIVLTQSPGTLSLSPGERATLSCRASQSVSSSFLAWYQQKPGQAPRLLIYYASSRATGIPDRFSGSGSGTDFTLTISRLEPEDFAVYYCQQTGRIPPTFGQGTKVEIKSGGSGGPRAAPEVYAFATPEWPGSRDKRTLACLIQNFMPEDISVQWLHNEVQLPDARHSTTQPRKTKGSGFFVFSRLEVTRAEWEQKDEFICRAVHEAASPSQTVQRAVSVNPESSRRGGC
Sequence of 131I L19-SIP (radioiodinated L19 SIP homodimer) (chain): as above

Substance: 131I L19-SIP (radioiodinated L19 SIP homodimer)
- Immunoreactivity (%) [1]: 65.8%
- Immunoreactivity (%) [2]: 66.2%
- Immunoreactivity (%) [3]: 50.7%
- Immunoreactivity (%) [4]: 94.8%
- Immunoreactivity (%) [5]: 64.6%
- Immunoreactivity (%) [6]: 56.2%
- Immunoreactivity (%) [7]: 70.4%
- Immunoreactivity (%) [8]: 60.7%
- Immunoreactivity (%) [9]: 88.7%
- Immunoreactivity (%) [10]: 59.9%
- Immunoreactivity (%) [11]: 71.6%
- Immunoreactivity (%) [12]: 61.9%
- Immunoreactivity (IR) (%) [13]: 77.1%
- Immunoreactivity (IR) (%) [14]: 68.8%
- Immunoreactivity (%) [15]: 54.8%
- Immunoreactivity (%) [16]: 48.6%
- Immunoreactivity (IR) (%) [17]: 80.1%
- Immunoreactivity (IR) (%) [18]: 78%
- Immunoreactivity (IR) (%) [19]: 64.7%
- Immunoreactivity (%) [20]: 88.5%
- Immunoreactivity (%) [21]: 87.9%
- Immunoreactivity (%) [22]: 78.5%
- Immunoreactivity (%) [23]: 95.8%
- Immunoreactivity (%) [24]: 47.6%
- Immunoreactivity (%) [25]: 43.7%
- Immunoreactivity (IR) (%) [26]: 76.3%
- Immunoreactivity (IR) (%) [27]: 60.6%
- Immunoreactivity (IR) (%) [28]: 39.8%
